Assay: yeast display, Sf9 membrane polyspecificity reagent, FACS + sequencing; frameworks hold sequencing errors
Outline: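 Galactose-induced (36–48 hours) yeast carrying a synthetic nanobody display library were exposed to 10% biotinylated, detergent-solubilized Sf9 membrane reagent at 4 °C for 1 hour. FACS followed streptavidin microbead enrichment, using low and high (top ~1%) gates for expression (anti-HA) and reagent binding (streptavidin). Colony PCR, MiSeq 2 × 250 sequencing and CDR-length filtering followed. Labels for polyreactivity reflect the gate of origin.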

Row | Sequence | polyreactivity (PSR sort gate)
1 | QVQIVESGGGLVQAGGSLRLSCAASGSIFTYNAMGWYRQAPGKERELVAAISYSGVRTYYADSVKGRFTISRDNAKNTVYLQMNRLKPVDTAVYYCNTRYPYSVLKYGYWGQGTQVTVSS | high polyreactivity
2 | QVQIVESGGGLVQAGGSLRLSCAASGSTFGYYAMGWYRQAPGKERELVAAISWRGGSTYYADSVKGRFTISRDNAKNTVYLQMHILKPEYTAVYYCAAAIFITGYGSYGYWGLGTQVTVSS | low polyreactivity
3 | QVQIVESGGGLVQAGGSLRLSCAASGSTFGYYTMGWYRQAPGKERELVAAISWSGGSTYYADSVKGRFTISRDNAKNTVYLQKNSLKPEDTAVYYCAALGYTYKYYSYYWGQGTQVTVSS | high polyreactivity
4 | QVQIVESGGGLVQAGGSLRLSCAASGSTFKRYAMGWYRQAPGKERELVAAITWRGGSTYYADSVKGRFTISRDNAKNTVYLQMNSLKPEDTAVYYCAARANYFGWPKSYYYWGQGTQVTVSS | high polyreactivity
5 | QVQIVESGGGLVQAGGSLRLSCAASGSTFYYNTMGWYRQAPGKERELVAAISWRRVSTYYADSVKGRFTISRDIAKNTVYFQMNSLKPEDTAVYYCNAVHHYPEHIGGGYWGQGSQVTVSS | low polyreactivity
6 | QVQIVESGGGLVQAGGSLRLSCAASGSTSTLNAMGWYRQAPGTERELVAAISRSGTSTYFADSVKGRFTISRDNAKNTVYLQMNSLKPEDTADYYCAAYSYGPPYYYWGQGTQVTVSS | high polyreactivity
7 | QVQIVESGGGLVQAGGSLRLSCAASGSTSVKYAMGWYRQAPGKERELVAAIRKRGDSTYYADSVKGRFTISRDYAKNTVYLQMNSLKPEDTAVYYFAAQYLRGRGYWGQGTQVTLSS | low polyreactivity
8 | QVQIVESGGGLVQAGGSLRLSCAAYGFTFYPYAMGWYRQAPGKERELVAAITRGGSTYYADSVKGRFTISRDNEKNTVYLQMNSLKPEDTAVYYCNAYWQGYGYDYWGQGTQVTVSS | low polyreactivity
9 | QVQIVESGGGLVQAGGSLRLSCADSGTTFRFNAIGWSRQAPGKERELVAAITGIGGITYYADSVKGRFTISRDNAKNTVYLQMNSLKPEDTAVYYCNAVAARYSVRNGYSTHYDYWGQGTQVTVSS | high polyreactivity
10 | QVQIVESGGGLVQAGGSLRLSCDASGSIFGRNAMGWYRQAPGKERELVAAITRTGGRTYYPDSVKGRITISRDNAKNTVYLQMNSLKPEDTEVKYCARYGGYWSLKYDYWGQGTQVTVSS | high polyreactivity
11 | QVQIVESGGGLVQAGGSLRLSCPASGSTFTRYPMGWYSQAPGKERELVAAISYSGSSTYYADSVKGRFTISRDNAKNTVYLEMICLIPEDTAVYYCAAGKQAPAVNYGYYYWGQCTQVTVSS | low polyreactivity
12 | QVQIVESGGGLVQAGGSLRLSFAASGRIFYNYALGWYRQAPGKERELVAAISGSGGSTYYADSVKGRFTISRDNAKNTVYLQMNSLKPEVTAVYYCSTSGPQYYSRNFDYWGQGTQVTVSS | low polyreactivity
13 | QVQIVESGGGLVQAGGSLSLSCAASGRTFAGNAMGWYRQAPGKEMELVASISSSGGRTYYADSVKGRFTISRDNAKNTVYLQMISLKPEDTAVYYCAARGGYVSTWTRFSKYNYWGQGTQVTVSS | high polyreactivity
14 | QVQIVESGGGLVQAGGSLSLSCAASGSILDQYAMGWYRQAPGKERELVAAITAIGDSTYYADSLKGRFTISRDNAKYTVYLQMYSLKPEVTAVYYCAGTYVGSDGGDYWGQGTQVTVAS | low polyreactivity
15 | QVQIVESGGGLVQAGGSLSLSCADYGSTFYHNVMGWYRQAPGKERELVASIDTGDSTNYADSVKGRFTISRDNAKNTVYLQMNSLKPEYTAVYYCNADSYPALNKRGYDYWGQGTQVTVSS | low polyreactivity
16 | QVQIVESGGGLVQAGGTLRLSCAPSGRTFAPNTMGWYRHAPGKEREFVARINSRGGSTYADSVKGRFTISRDNAKNTVYLQMNSLKPEDTAVYYCARKPYRGVYRYDYWGQGTQVTVSS | high polyreactivity

From the nanobody polyreactivity screen of Harvey et al. (2022)
